{
  "source": "paper PMC4072569",
  "about": "(Molecular Biology of the Cell, 2014)",
  "binders": {"B1": {"name": "Mob1p-mEGFP (natural protein, S. pombe, UniProt O94360 1-210, looked up)", "chain": "MFGFSNKTAKTFRVRKTEAGTKHYQLRQYAEATLGSGSLMEAVKLPKGEDLNEWIAMNTMDFYTQINMLYGTITEFCTAASCPQMNAGPSYEYYWQDDKIYTKPTRMSAPDYINNLLDWTQEKLDDKKLFPTEIGVEFPKNFRKVIQQIFRRLFRIYAHIYCSHFHVMVAMELESYLNTSFKHFVFFCREFGLMDNKEYAPMQDLVDSMV"}, "B2": {"name": "Cdc15p-mEGFP (natural protein, S. pombe, UniProt Q09822 1-927, looked up)", "chain": "MEVNGVSQSEAAPYVTKSSVKFRDNFWGSEDAGMDALMSRTKSSLSVLESIDEFYAKRASIEREYASKLQELAASSADIPEVGSTLNNILSMRTETGSMAKAHEEVSQQINTELRNKIREYIDQTEQQKVVAANAIEELYQKKTALEIDLSEKKDAYEYSCNKLNSYMRQTKKMTGRELDKYNLKIRQAALAVKKMDAEYRETNELLLTVTREWIDRWTEVCDAFQHIEEYRLEFLKTNMWAYANIISTACVKDDESCEKIRLTLENTNIDEDITQMIQNEGTGTTIPPLPEFNDYFKENGLNYDIDQLISKAPSYPYSSSRPSASASLASSPTRSAFRPKTSETVSSEVVSSPPTSPLHSPVKPVSNEQVEQVTEVELSIPVPSIQEAESQKPVLTGSSMRRPSVTSPTFEVAARPLTSMDVRSSHNAETEVQAIPAATDISPEVKEGKNSENAITKDNDDIILSSQLQPTATGSRSSRLSFSRHGHGSQTSLGSIKRKSIMERMGRPTSPFMGSSFSNMGSRSTSPTKEGFASNQHATGASVQSDELEDIDPRANVVLNVGPNMLSVGEAPVESTSKEEDKDVPDPIANAMAELSSSMRRRQSTSVDDEAPVSLSKTSSSTRLNGLGYHSRNTSIASDIDGVPKKSTLGAPPAAHTSAQMQRMSNSFASQTKQVFGEQRTENSARESLRHSRSNMSRSPSPMLSRRSSTLRPSFERSASSLSVRQSDVVSPAPSTRARGQSVSGQQRPSSSMSLYGEYNKSQPQLSMQRSVSPNPLGPNRRSSSVLQSQKSTSSNTSNRNNGGYSGSRPSSEMGHRYGSMSGRSMRQVSQRSTSRARSPEPTNRNSVQSKNVDPRATFTAEGEPILGYVIALYDYQAQIPEEISFQKGDTLMVLRTQEDGWWDGEIINVPNSKRGLFPSNFVQTV"}, "B3": {"name": "Blt1p-hexahistidine (natural protein, S. pombe, UniProt O74338 1-700, looked up)", "chain": "MSKSAFTSKSQLKGIDGSFNDPFRQPSMNLPTPPHDDGLPSIPRSTALPNLSNRLSPYSHRNYLPIPEADSRNLEVLNSISLTTGSVVNQINKLYQRSCDNANYLQDLRSLILQTPTAEANATQVTESLNQIQKILQEASSKDREQIVQVIKELNKGNSLEVRRELGNCLAHLKKGTLNIDNALQASLQKYWKELQYFNVSKDKLLSLEESIKLLSARLEETDTPSSTHWIEINAGFKEVGDELSENFQRKQEILSGLQNNVILRTNNRKPVGSDGSNSNFNGGEEQMDSKDQEEIQDYLNSLLSVHEKDGVLLQKFHNSYVQYQKLAVALSKYENFDADKLFQQMNLAKQSNETLLQTLTEQTDQLLSFKETMDSFKFILGPSMENQALQQGILAEQQDLVAQLRDIVLRSETLAENPSNMPGSCLPGASSNTADEFTEQLNLLKNEVARLSAICPSPNSGINASVLTNADNLEKENLLLVNNNAFKVDDRSVSSVALDDHNRQLQMNVEELEGKKADLTSKINRLDKDFVKLNTTYSLLTDQVKTKQLALQEIESRVIRLEERLNMLQKLSMQPAISSSSEFVPIESHPSSSAVVPIEEPKNSIIEKKRVPHNAARNSVNLEVTLPNSKKRFSSFSGSSSKLPVRPSTALTDKRKPSWSRRLAAAIGFSSGSPEKKHVITSSDAGHQRSKSRSFSSKM"}, "B4": {"name": "Sid2p-mEGFP (natural protein, S. pombe, UniProt Q09898 1-607, looked up)", "chain": "MNRVNDMSPVEGDLGLQLSSEADKKFDAYMKRHGLFEPGNLSNNDKERNLEDQFNSMKLSPVASSKENYPDNHMHSKHISKLPIASPIPRGLDRSGELSYKDNNHWSDRSSTGSPRWENGSMNLSVEEMEKVVQPKVKRMATICQMFFLDHYFEQLHYLYTRKQRARLFEEQLLKEPDSRRDELVKRYNGRERVYLRKRRTRISHGDFQTITQVGQGGYGSVWLARKRDTKEIVALKIMNKSVLHKMDEIRHVLTERDILTTANSEWLVRLLYAFQDTSNIYLAMEFVPGGDFRTLLSNSGVLRDHHAKFYATEMFLAIDALHQLGYIHRDLKPENFLVGASGHIKLTDFGLSSGIISKKKIESMKIRLQEVNNVVVPERSMRERRQVFRTLLSQDPVYAHSVVGSPDYMAPEVLRGENYNHSVDYWSLGCIMYECLSGFPPFSGSNVNETWSNLKNWRKCFQRPHYDDPRDLEFNWRDDAWDFVCHCITDPKDRFCSLKQVMQHPYFSKIDWKNVRTAYRPPFVPDLNSEIDAGYFDDFTNENDMSKYKEVHEKQAAIANMVNTFNKPKRNAFIGFTFRHQKNSHPTSSSSALSSPLSAPSFGTLL"}},
  "key": {"Blt1p-hexahistidine": {"target": "B3", "experiment": "pull-down"}, "AUC": {"target": "the molecule itself", "experiment": "AUC"}},
  "data": [
    {"binder": "B1", "values": [
      {"measurement": "percent pulled down from lysate", "setting": "Blt1p-hexahistidine", "result": 42, "unit": "%"}
    ]},
    {"binder": "B2", "values": [
      {"measurement": "percent pulled down from lysate", "setting": "Blt1p-hexahistidine", "result": 23, "unit": "%"}
    ]},
    {"binder": "B3", "values": [
      {"measurement": "stoichiometry N", "setting": "AUC", "result": 4}
    ]},
    {"binder": "B4", "values": [
      {"measurement": "percent pulled down from lysate", "setting": "Blt1p-hexahistidine", "result": 22, "unit": "%"}
    ]}
  ]
}
